Experimental data taken from publication PMC6107761.

Tests used:
Conditions in all cases: remark: other sources report otherwise
[1] = target: T1, human wild type calcium and integrin binding protein 2 (CIB2) (human), O75838; assay: native gel or EMSA; Ferguson plot: non-denaturing continuous gels at 10, 12, 15% acrylamide, BSA as standard; 20 μM CIB2 with EGTA, Mg2+ or Ca2+ + Mg2+, 1 mM DTT, room temperature
T1 chain: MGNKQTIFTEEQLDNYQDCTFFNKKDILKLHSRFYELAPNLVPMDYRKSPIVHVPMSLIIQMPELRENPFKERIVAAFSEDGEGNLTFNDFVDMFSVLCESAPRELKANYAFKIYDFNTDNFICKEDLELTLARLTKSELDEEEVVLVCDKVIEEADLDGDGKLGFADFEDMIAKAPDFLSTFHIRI

[2] = target: T1, human wild type calcium and integrin …; assay: dynamic light scattering; Zetasizer Nano-S, 37°C; samples immediately after SEC in 20 mM Tris-HCl pH 7.5, 150 mM KCl, 1 mM DTT with 3 mM EGTA or 2 mM EGTA + 3 mM Mg2+ or 3 mM Mg2+ + 2 mM Ca2+
[3] = target: T1, human wild type calcium and integrin …; assay: SEC; analytical SEC, Superose 12 10/300GL; 20 mM Tris pH 7.5, 150 mM KCl, 1 mM DTT with 3 mM EGTA or 2 mM EGTA + 3 mM Mg2+ or 3 mM Mg2+ + 2 mM Ca2+; WT 100 μM, E64D 70 μM; MW from a calibration plot

stoichiometry N [1]: 2 | stoichiometry N [2]: 2 | stoichiometry N [3]: 2
B1: human wild type calcium and integrin binding protein 2 (CIB2), O75838-1 1-187 (natural protein)
chain: MGNKQTIFTEEQLDNYQDCTFFNKKDILKLHSRFYELAPNLVPMDYRKSPIVHVPMSLIIQMPELRENPFKERIVAAFSEDGEGNLTFNDFVDMFSVLCESAPRELKANYAFKIYDFNTDNFICKEDLELTLARLTKSELDEEEVVLVCDKVIEEADLDGDGKLGFADFEDMIAKAPDFLSTFHIRI
